Test results taken from patent US6515118.

Legend:
[1] = tested on: lamin B1 in co-incubated nuclei
[2] = tested on: poly(ADP-ribose) polymerase (PARP) in co-incubated nuclei
[3] = tested on: Ac-Asp-Glu-Ala-Asp-aldehyde (Ac-DEAD-CHO)
[4] = tested on: DFF-45, 45-kDa subunit of DNA Fragmentation Factor (DFF), purified from HeLa cell S-100
[5] = molecular target: T1, DFF-40, 40-kDa subunit of DNA Fragmentation Factor (DFF), purified from HeLa cell S-100 (UniProt O76075)
T1 sequence: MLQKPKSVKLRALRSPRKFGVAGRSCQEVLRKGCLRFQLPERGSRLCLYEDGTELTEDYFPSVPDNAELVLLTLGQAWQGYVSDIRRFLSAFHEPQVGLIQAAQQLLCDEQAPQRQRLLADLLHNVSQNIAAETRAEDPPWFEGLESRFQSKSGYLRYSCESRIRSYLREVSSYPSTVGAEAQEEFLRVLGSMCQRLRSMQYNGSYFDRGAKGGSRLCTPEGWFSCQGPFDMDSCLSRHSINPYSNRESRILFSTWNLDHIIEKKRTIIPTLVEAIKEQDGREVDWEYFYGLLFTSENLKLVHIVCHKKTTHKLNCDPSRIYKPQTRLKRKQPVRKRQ

[6] = tested on: recombinant DFF-45 fusion protein with a six-histidine tag at the NH2-terminus

Question: With active recombinant caspase-3 as the substance, how does the “time course of lamin B1 cleavage in nuclei (immunoblot)” value [1] read?
Answer: Its value is “the rate of Lamin B1 cleavage by caspase-3 remained the same with or without DFF”.

Question: What about the “rate of PARP cleavage in nuclei (immunoblot)” value [2] of the same substance?
Answer: Its value is “The same conclusion was obtained when the rate of cleavage of PARP was measured”.

Question: What about the “cleavage of PARP and lamin B1 in co-incubated nuclei (immunoblot)” value [3] of the same substance?
Answer: The value was “Ac-DEAD SEQ ID NO:6-CHO still blocked the cleavage of both PARP and lamin B1 in the co-incubated nuclei”.

Question: What about the “cleavage of biotinylated DFF (SDS-PAGE, streptavidin-peroxidase chemiluminescence)” value [4] of the same substance?
Answer: The value was “Incubation with caspase-3 resulted in the cleavage of the 45-kDa subunit into fragments of molecular masses of 30 kDa and 11 kDa”.

Question: What about the “cleavage of biotinylated DFF (SDS-PAGE, streptavidin-peroxidase chemiluminescence)” value [5] of the same substance?
Answer: Its value is “the 40-kDa subunit remained intact”.

Question: What about the “cleavage of the purified fusion protein (SDS-PAGE)” value [6] of the same substance?
Answer: The value was “Incubation of this fusion protein with caspase-3 resulted in its cleavage into three fragments of 30 kDa, 18 kDa and 11 kDa at the early time point”.
